Here are results for four molecules from patent US20160271157A1, “BETA-CATENIN” (UCL BUSINESS PLC, priority 2013, published 2016).

The test system of assay [1] is β-catenin translocation to the nucleus. The assay can be described thus: β-catenin immunocytochemistry and nuclear co-localization analysis, PC3. It is filed as cell-based. Particulars: for Pearson coefficient of nuclear co-localization of β-catenin / expression of β-catenin (immunofluorescence), visible in the nucleus: PC3 cells; for Pearson coefficient of nuclear co-localization of β-catenin: Wnt 100 ng/ml vs control, p<0.001 Mann Whitney test; for expression of β-catenin (immunofluorescence), visible in the nucleus: Wnt ligand 100 ng/ml vs vehicle. As to the method: (§1) Immunostaining was performed in two different laboratories, independently with the experimenter blind to the identity of the treatment. Either cells used in FluoroDish, post [Ca^2+]i experiments using dyes (see above) or grown in 8 well chamber glass slides (Lab Tek II, Nunc) were used. For Wnt ligand treatment, the culture medium replaced with PBS (without calcium) at 37° C. The experiments were replicated for Wnt ligand or vehicle control as described for [Ca^2+]i measurements. Briefly, Wnt ligands were added and chamber slides incubated at 37° C. for up to 20 min. Chamber wells were washed 3× with 0.5 ml PBS and cells were fixed with 0.5 ml 4% formalin for 30 min at 4° C. Cells were washed 3× with ice cold PBS and stored in 0.5 ml PBS at 4° C. for immunostaining. In some experiments PC3 cells were treated with thaspsigargin as described above.
For immunostaining cells were washed twice for 5 minutes in TBST (20 mM Tris pH 7.4, 0.9% NaCl, 0.1% Tween 20, Sigma). Cells were then incubated in 20% normal goat serum (NGS)/TBST for 30 min at room temperature, the chambers were drained and cells were incubated with mouse anti-β-catenin (ab22656, Abcam, UK) at 1:500 dilution in NGS/TBST overnight at 4° C. Following two further 5 min washes in TBST sections were incubated in goat anti-mouse peroxidase fab (Abcam, UK) at 1:500 dilution for 30 min at room temperature. Following a further two 5 min washes in TBST cells were incubated with tyramide Cy3 (Perkin Elmer) for 10 min at room temperature. Sections were washed twice for 5 min in TBST before nuclear counterstaining with DAPI. After a final two 5 min washes, the chambers were removed and cover slip placed on slides using Permafluor (Thermo Shandon).
Fluorescence immunocytochemical staining for β-catenin expression in cell lines was imaged using Olympus Fluoview 1000 Confocal Microscope (Olympus KeyMed) mounted on an Olympus IX81 inverted microscope using a 20×0.7 NA or 40×1.0 NA dry objective with a zoom of ×3.4′,6-diamidino-2-phenylindole (DAPI, nuclear counterstain) was excited at 405 nm with an emission of 415-500 nm; Cy3 (β-catenin label) signal was excited at 561 nm with an emission spectrum between 570-670 nm. […] Z-stacks of at least 3 fields per sample were imaged and saved in Olympus FV (OIF or OIB) file format.
Nuclear co-localization of β-catenin was calculated by importing FV files for untreated, control or treated cells, into colocalization plugin of Fiji software (http://fiji.sc/Fiji) for Cy3 (β-catenin) and DAPI (nuclear) signals. Pearson co-relation of colocalization were tabulated for 25-90 cells (from 2-5 different passages of cells) using ROI analysis. Statistical significance between untreated and treated cells was calculated using Mann Whitney U test.

The test system of assay [2] is PC3 prostate cancer cell line. The assay can be described thus: Live [Ca2+]i imaging (Fluo4/FuraRed ratio) after addition of Wnt ligand. The assay is classed as cell-based. The settings on record: PC3 cells; for intracellular calcium mobilization ([Ca2+]i release) in response to Wnt ligand: 100 ng/ml Wnt ligand peptide, ratio of Fluo4/Fura Red; for dependence of time constants (dwell time) on Wnt ligand concentration / co-operativity: three concentrations of each Wnt ligand, first-order fit; for rise and fall time of [Ca2+]i release: Wnt peptide 100 ng/ml. As to the method:
The imaging protocol was developed in the inventor's laboratory and has been described in detail, elsewhere (Wang at al., (2010) PLoS ONE 5, e10456). Briefly, 100000-200000 PC3, MCF7, 253J or Cos 7 cells were plated on 35 mm FluoroDish (WPI) and grown for 48 h; calcium indicators Fluo-4 (Invitrogen) and FuraRed (Invitrogen) at 1 ng/ml were added to FluoroDish containing only 1 ml of culture medium and incubated for 15-20 min at 37° C. The culture medium was removed and washed (×2) and replaced with 1 ml PBS. Live cell calcium Imaging was performed on an Olympus FluoView FV 1000 confocal microscope (Olympus KeyMed) equipped with a 20× dry objective (numerical aperture=0.75). Calcium indicators were excited with an argon laser line (488 nm) and emissions recorded in the green channel (500-560 nm) for Fluo-4 and red channel (600-700 nm) for FuraRed after addition of vehicle control (PBS) or Wnt X (30-600 ng/ml). Images were acquired every 1.1 or 2.2 seconds for up to 600-800s; image and data acquisition was performed using FluoView 1000 software (Olympus, UK). Fluorescent intensity was measured and data exported as a tab delimited file for further analysis using a spreadsheet. All imaging experiments were performed in duplicate; intracellular calcium at 100 ng/ml was measured in at least 3-12 different passages (passage numbers 25 to 37) of cell line for each Wnt ligand. Wnt 11 was tested in at least 5 different passages at 3 different concentrations. To test if the Wnt activated calcium release was from [Ca^2+]i stores, in some cases PC3 cells, loaded with calcium dyes, were incubated with 1-5 μM of thapsigargin (Sigma, UK), resuspended in dimethyl sulfoxide (DMSO), for 20 min at 37° C., prior to addition of Wnt ligand and live calcium imaging (as described above).
The experiments were performed using 35 mm, glass bottom, FluoroDish containing 1 ml PBS, at 37° C., to which ligands were added at desired concentration. In a static, non-superfusing assay system there is a lag time before the start of a response, in this case an increase in the intensity of the Fluo4 signal due to the release of free calcium. To measure the diffusion constant under these conditions we used Pontamine Sky Blue (Sigma Aldridge), which fluoresces in the red spectrum with 488 nm excitation, using standard practice for adding ligands; the diffusion constant was measured to be 23.3±2.1 μm·s^−1 (means±S.E.M, n=8). The calcium wave, in response to Wnt ligands, travelled across the FluoroDish.
After image acquisition, regions of interest (ROI) were drawn over individual PC3 cells (up to 25) in a single frame and calcium intensity measurements were made using FluoView 1000 software (Olympus, UK). The measurements were exported as a tab delimited file into a spreadsheet for further analysis and Fluo4/Fura Red ratios were calculated. The waveform, a product of the ratio of Fluo4 and FuraRed over the period of measurement was used to measure the kinetics of the activation of [Ca^2+]i release in PC3 cells, in response to different Wnt ligands. The time constants (rise, dwell and fall times) were calculated by first fitting the Fluo4/FuraRed ratio to a single Gaussian function (Origin Lab Corp., MA); a lower (10%) and upper (90%) amplitude thresholding method was then used to calculate the time constants (s). Statistical significance was calculated using Mann Whitney U test.
Background: Calcium assays in cells follow changes in intracellular calcium, usually with a dye or a luminescent sensor.

The subject of assay [3] is β-catenin translocation to the nucleus. Kind of assay: β-catenin immunocytochemistry, MCF7. It is filed as cell-based, human. Particulars: MCF7 breast cancer cell line. How it is done:
as §1
For immunostaining cells were washed twice for 5 minutes in TBST (20 mM Tris pH 7.4, 0.9% NaCl, 0.1% Tween 20, Sigma). Cells were then incubated in 20% normal goat serum (NGS)/TBST for 30 min at room temperature, the chambers were drained and cells were incubated with mouse anti-β-catenin (ab22656, Abcam, UK) at 1:500 dilution in NGS/TBST overnight at 4° C. […]
Fluorescence immunocytochemical staining for β-catenin expression in cell lines was imaged using Olympus Fluoview 1000 Confocal Microscope (Olympus KeyMed) mounted on an Olympus IX81 inverted microscope using a 20×0.7 NA or 40×1.0 NA dry objective with a zoom of ×3.4′,6-diamidino-2-phenylindole (DAPI, nuclear counterstain) was excited at 405 nm with an emission of 415-500 nm; Cy3 (β-catenin label) signal was excited at 561 nm with an emission spectrum between 570-670 nm. […]
Nuclear co-localization of β-catenin was calculated by importing FV files for untreated, control or treated cells, into colocalization plugin of Fiji software (http://fiji.sc/Fiji) for Cy3 (β-catenin) and DAPI (nuclear) signals. […] Statistical significance between untreated and treated cells was calculated using Mann Whitney U test.

With `C/C=C(/C)C(=O)O[C@H]1C(C)=C2[C@H]([C@@H]1OC(=O)CCCCCCC)[C@@](C)(OC(C)=O)C[C@H](OC(=O)CCC)[C@@]1(O)[C@H]2OC(=O)[C@@]1(C)O` [thapsigargin, reference compound], the “translocation of β-catenin into the nucleus after inhibition of Wnt induced [Ca2+]i release” value in assay [1] (PC3 cells incubated with thapsigargin) was “reduced the translocation of β-catenin into the nucleus”. The “time for thapsigargin-evoked calcium transient to decline to baseline” value in assay [2] (thapsigargin 5 μM final concentration) is given as no more than 120 s.
For the molecule “Wnt10B: Recombinant Wnt peptide purchased from R&D systems”, in assay [1], the “Pearson coefficient of nuclear co-localization of β-catenin” value (“Pearson coefficient” for short) was “significant increase” and the “expression of β-catenin (immunofluorescence), visible in the nucleus” value (“expression of β-catenin” below) is “visibly increased”. For the same molecule, in assay [3], the “β-catenin translocation into the nucleus after Wnt treatment” value is on record as “β-catenin translocation into the nucleus”. In assay [2], the “intracellular calcium mobilization ([Ca2+]i release) in response to Wnt ligand” value (“intracellular calcium mobilization” for short) is recorded as “induce intracellular calcium mobilization” and the “dependence of time constants (dwell time) on Wnt ligand concentration / co-operativity” value was “negative co-operativity”.

B1: Wnt5A: Recombinant Wnt peptide purchased from R&D systems (protein, UniProt P41221 62-380, looked up)
Protein Wnt-5a: IIGAQPLCSQLAGLSQGQKKLCHLYQDHMQYIGEGAKTGIKECQYQFRHRRWNCSTVDNTSVFGRVMQIGSRETAFTYAVSAAGVVNAMSRACREGELSTCGCSRAARPKDLPRDWLWGGCGDNIDYGYRFAKEFVDARERERIHAKGSYESARILMNLHNNEAGRRTVYNLADVACKCHGVSGSCSLKTCWLQLADFRKVGDALKEKYDSAAAMRLNSRGKLVQVNSRFNSPTTQDLVYIDPSPDYCVRNESTGSLGTQGRLCNKTSEGMDGCELMCCGRGYDQFKTVQTERCHCKFHWCCYVKCKKCTEIVDQFVCK
Regarding B1, in assay [1], the “Pearson coefficient” value is reported as “significant increase” and the “expression of β-catenin” value is “visibly increased”. For the same molecule, the “β-catenin translocation into the nucleus after Wnt treatment” value in assay [3] is “β-catenin translocation into the nucleus”. Moreover, in assay [2], the “intracellular calcium mobilization” value is reported as “induce intracellular calcium mobilization”; the “rise and fall time of [Ca2+]i release” value is “shortest”; the “dependence of time constants (dwell time) on Wnt ligand concentration / co-operativity” value is listed as “classical Michaelis-Menten kinetics”. In assay [2] (estimated from fit of dwell time vs Wnt concentration), the “K1/2 (half-maximal concentration), Michaelis-Menten kinetics of dwell time of [Ca2+]i release” value is 67 ng/mL.

B2: Wnt9B: Recombinant Wnt peptide purchased from R&D systems (protein, UniProt O14905 23-357, looked up)
Protein Wnt-9b: SYFGLTGREVLTPFPGLGTAAAPAQGGAHLKQCDLLKLSRRQKQLCRREPGLAETLRDAAHLGLLECQFQFRHERWNCSLEGRMGLLKRGFKETAFLYAVSSAALTHTLARACSAGRMERCTCDDSPGLESRQAWQWGVCGDNLKYSTKFLSNFLGSKRGNKDLRARADAHNTHVGIKAVKSGLRTTCKCHGVSGSCAVRTCWKQLSPFRETGQVLKLRYDSAVKVSSATNEALGRLELWAPARQGSLTKGLAPRSGDLVYMEDSPSFCRPSKYSPGTAGRVCSREASCSSLCCGRGYDTQSRLVAFSCHCQVQWCCYVECQQCVQEELVYTCKH
For the molecule B2, in assay [1], the “Pearson coefficient” value is listed as “significant increase” and the “expression of β-catenin” value is on record as “visibly increased”. Further, the “β-catenin translocation into the nucleus after Wnt treatment” value in assay [3] is on record as “β-catenin translocation into the nucleus”. Further, in assay [2], the “intracellular calcium mobilization” value was “induce intracellular calcium mobilization”; the “rise and fall time of [Ca2+]i release” value is “slowest”; the “dependence of time constants (dwell time) on Wnt ligand concentration / co-operativity” value is “negative co-operativity”.
